# Tests used:
# [1] = molecular target: HSPB1ACD (α-crystallin domain of HSPB1) (human); assay: native MS
# [2] = molecular target: HSPB5ACD (α-crystallin domain of HSPB5) (human); assay: native MS
Substance,Kd [1] [µM],Kd [2] [µM]
HSPB1 C-terminal peptide (cognate peptide of HSPB1ACD),< 100,
HSPB5 C-terminal peptide (cognate peptide of HSPB5ACD),,< 100
